{
  "source": "paper PMC11098746",
  "about": "(2024)",
  "binders": {"B1": {"name": "ADP237 (protein)", "chain": "TKKKVSVSEINFDSAVDDVQWCGNNHMTVLVKTVKGRLYRSSDGGKIWTNIAGNLADKENNKADPSSNHMNEMTTVDLIMVNSVNKNIVLIIGNQKNHYISEDSGETFRLLNYQNKINFWQFHSTKTHWALVSSWTEACYSNDDNSGECMQTLSLTKDLGRTFQLIDIYVVQFNWGDKESHLEDTIYYTRHKNRNGHQQRFSGWSKDVDFVATHNFGKSVDVLVKQGNKFLISNGYIFVAKLNDVIKQTVNMMVSTDGGKTFNKANLPENIHEKSYTVLDTSEGSIMLHVNHGTSSEKINTGNVYISDASGLNYALSLPNNIRTSSGECEFDRVLSLDGVYIANFLDVNNEIKDEDLRFQNFKSAIEEDIAPFETNTEKRKKQYNKGKNEDAVRTVISFNKGGEWSYLKAPKVDSRGNKYECGDNCYLHLHGITNYHQYAPFYSIENAVGIIMGTGNVGSHLRYESDEVNTFLSRDGGVTWIEAHKGPYIYEYGDYGGLIVMADDLRKTNQIVFSWNEGQSWFDFELGQFSIDVDNIVAEPNSASVEFLVYGTRNDVGVLYHLDFNALGQPLCKGLWAADSVSSDYETWSPTSGNFNDKCILGRKITYTRRKQTSECFNGKDLKRTVDKKPCECTPEDYECETGFTRKIGSYECKPNDPTLTIEGCTSSSYFYANAYRKVPGDICVNGWVPEKVPVPCPSYAPFNKAAK", "modifications": "bait human Fc-tagged dimer; N-glycosylation sequons mutated in Plasmodium baits"}},
  "assay_in_all_cases": "AVEXIS screen signal:noise (double-corrected)",
  "key": {"[1]": {"target": "T1, ADP279", "T1 chain": "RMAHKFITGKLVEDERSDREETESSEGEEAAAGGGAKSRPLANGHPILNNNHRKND"}, "[2]": {"target": "T2, ADP375", "T2 chain": "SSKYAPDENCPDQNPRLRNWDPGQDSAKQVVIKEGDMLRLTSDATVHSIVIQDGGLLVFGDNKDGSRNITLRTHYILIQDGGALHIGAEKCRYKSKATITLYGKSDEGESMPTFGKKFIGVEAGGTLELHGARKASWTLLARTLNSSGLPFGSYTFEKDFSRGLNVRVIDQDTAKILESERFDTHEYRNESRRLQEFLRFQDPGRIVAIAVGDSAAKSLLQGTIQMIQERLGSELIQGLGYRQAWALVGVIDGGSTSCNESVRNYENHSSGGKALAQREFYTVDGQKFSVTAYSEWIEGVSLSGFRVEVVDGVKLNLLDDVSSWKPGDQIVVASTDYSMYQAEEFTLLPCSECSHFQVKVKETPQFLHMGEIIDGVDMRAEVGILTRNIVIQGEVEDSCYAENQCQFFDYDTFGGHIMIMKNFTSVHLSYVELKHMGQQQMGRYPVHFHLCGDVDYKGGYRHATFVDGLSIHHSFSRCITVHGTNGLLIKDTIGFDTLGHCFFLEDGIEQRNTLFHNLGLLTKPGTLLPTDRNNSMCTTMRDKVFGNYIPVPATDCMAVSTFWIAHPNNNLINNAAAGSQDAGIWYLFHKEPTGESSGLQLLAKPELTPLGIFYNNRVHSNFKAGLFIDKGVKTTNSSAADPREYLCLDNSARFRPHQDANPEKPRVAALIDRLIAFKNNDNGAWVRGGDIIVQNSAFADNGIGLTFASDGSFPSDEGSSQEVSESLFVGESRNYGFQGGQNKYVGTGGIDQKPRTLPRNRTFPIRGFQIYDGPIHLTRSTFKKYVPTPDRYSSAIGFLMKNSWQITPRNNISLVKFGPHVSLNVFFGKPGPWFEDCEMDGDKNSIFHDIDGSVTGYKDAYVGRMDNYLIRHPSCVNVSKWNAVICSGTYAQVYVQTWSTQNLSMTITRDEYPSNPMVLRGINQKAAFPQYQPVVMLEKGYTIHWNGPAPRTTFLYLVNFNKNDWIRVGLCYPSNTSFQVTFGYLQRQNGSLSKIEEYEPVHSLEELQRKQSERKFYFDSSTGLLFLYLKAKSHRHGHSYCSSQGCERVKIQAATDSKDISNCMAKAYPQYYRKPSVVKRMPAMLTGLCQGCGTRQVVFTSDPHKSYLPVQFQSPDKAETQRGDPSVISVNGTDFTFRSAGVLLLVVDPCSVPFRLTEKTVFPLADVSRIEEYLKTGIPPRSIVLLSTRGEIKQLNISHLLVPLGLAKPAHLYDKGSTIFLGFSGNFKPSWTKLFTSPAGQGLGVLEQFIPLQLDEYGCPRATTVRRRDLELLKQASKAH"}, "[3]": {"target": "ADP123"}, "[4]": {"target": "T3, ADP293", "T3 chain": "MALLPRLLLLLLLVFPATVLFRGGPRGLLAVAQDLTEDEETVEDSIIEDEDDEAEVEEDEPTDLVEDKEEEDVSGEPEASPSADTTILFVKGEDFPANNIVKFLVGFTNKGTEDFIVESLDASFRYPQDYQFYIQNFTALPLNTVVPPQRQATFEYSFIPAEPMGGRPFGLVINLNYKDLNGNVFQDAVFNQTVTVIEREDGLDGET"}, "[5]": {"target": "T4, ADP379", "T4 chain": "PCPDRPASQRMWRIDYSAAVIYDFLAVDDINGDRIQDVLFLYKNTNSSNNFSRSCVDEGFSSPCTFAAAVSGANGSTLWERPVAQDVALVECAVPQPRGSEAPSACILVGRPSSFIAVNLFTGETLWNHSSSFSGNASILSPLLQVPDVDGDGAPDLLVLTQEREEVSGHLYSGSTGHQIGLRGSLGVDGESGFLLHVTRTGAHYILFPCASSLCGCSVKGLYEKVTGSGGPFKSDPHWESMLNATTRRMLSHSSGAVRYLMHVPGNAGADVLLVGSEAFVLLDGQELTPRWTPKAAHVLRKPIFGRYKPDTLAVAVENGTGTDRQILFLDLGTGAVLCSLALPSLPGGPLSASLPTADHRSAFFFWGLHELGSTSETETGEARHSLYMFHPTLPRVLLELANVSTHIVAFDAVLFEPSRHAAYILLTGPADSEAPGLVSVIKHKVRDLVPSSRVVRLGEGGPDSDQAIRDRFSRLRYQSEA"}, "[6]": {"target": "ADP099", "sequence (P02786 89-760)": "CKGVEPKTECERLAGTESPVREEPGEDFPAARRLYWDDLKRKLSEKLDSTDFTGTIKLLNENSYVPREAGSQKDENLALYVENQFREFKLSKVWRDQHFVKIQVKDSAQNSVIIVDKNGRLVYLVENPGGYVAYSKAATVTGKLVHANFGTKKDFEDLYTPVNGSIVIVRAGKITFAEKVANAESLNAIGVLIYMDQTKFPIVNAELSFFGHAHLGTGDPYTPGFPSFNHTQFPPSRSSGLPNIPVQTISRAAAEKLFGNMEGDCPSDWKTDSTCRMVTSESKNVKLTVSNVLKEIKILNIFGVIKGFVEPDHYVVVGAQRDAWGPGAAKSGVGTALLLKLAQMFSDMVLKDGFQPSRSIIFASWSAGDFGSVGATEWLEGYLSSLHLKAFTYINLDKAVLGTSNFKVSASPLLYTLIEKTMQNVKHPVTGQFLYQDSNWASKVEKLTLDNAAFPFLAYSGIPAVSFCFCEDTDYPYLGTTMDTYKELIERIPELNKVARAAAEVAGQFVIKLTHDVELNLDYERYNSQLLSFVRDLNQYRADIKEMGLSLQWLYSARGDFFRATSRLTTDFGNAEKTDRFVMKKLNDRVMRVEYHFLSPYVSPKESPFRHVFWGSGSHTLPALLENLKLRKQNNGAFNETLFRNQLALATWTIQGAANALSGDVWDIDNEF"}, "[7]": {"target": "T5, ADP096", "T5 chain": "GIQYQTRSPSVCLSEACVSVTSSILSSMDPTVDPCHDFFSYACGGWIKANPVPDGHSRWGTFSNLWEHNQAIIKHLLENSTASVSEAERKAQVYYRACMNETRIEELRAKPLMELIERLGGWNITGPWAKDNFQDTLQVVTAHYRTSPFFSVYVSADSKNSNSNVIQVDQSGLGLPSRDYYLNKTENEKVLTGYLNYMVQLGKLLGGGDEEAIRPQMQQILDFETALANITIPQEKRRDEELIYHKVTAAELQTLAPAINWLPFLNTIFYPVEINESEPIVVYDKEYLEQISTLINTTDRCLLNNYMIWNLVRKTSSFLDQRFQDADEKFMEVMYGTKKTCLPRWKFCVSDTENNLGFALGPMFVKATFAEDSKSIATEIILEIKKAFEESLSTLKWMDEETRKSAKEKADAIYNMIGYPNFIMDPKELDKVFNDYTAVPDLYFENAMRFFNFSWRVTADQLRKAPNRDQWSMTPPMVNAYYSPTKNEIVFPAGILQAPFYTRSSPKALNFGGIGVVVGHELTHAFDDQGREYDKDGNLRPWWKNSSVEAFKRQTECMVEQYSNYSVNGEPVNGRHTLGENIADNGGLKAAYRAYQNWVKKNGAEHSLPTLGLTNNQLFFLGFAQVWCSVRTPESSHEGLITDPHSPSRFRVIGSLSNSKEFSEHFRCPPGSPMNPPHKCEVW"}},
  "data": [
    {"binder": "B1", "values": [
      {"measurement": "binding score", "setting": "[1]", "result": 12.8},
      {"measurement": "binding score", "setting": "[2]", "result": 24.4},
      {"measurement": "binding score", "setting": "[3]", "result": 5.84},
      {"measurement": "binding score", "setting": "[4]", "result": 11.1},
      {"measurement": "binding score", "setting": "[5]", "result": 16.2},
      {"measurement": "binding score", "setting": "[6]", "result": 5.11},
      {"measurement": "binding score", "setting": "[7]", "result": 16.2}
    ]}
  ]
}
